Results reported in paper PMC11276760.

Target: integrin β1 (on KYSE410 ESCC cells) (UniProt P05556)
Assay: flow cytometry (cell binding)
Settings: 0.01 M PBS, 4.5 g/L glucose, 5 mM MgCl2, 1 mg/mL BSA, 0.1 mg/mL yeast tRNA, 30 min on ice, ~1e5 cells, pH not stated

Sequence of integrin β1 (on KYSE410 ESCC cells) (P05556 21-798): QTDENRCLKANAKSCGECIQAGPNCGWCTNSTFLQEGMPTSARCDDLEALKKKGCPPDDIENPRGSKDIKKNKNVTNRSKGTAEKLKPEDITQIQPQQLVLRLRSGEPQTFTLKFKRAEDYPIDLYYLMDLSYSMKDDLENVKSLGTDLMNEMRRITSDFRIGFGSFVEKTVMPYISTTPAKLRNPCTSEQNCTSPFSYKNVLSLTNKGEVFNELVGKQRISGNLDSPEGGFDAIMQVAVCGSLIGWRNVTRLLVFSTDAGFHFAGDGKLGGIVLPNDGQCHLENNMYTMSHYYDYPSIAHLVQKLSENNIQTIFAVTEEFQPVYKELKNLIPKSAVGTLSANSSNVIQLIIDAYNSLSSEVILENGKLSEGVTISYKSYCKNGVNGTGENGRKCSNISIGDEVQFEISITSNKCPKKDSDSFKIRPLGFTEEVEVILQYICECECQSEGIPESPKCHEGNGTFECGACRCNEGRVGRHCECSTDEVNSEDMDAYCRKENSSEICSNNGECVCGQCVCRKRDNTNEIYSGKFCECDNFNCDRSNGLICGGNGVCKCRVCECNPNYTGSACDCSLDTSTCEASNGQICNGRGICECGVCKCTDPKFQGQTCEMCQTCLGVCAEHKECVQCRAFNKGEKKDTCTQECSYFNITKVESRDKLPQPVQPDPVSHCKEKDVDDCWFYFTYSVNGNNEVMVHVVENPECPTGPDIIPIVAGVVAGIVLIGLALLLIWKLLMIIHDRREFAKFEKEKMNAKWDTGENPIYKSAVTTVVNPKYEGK

Sequence	Kd [nM]
CGCGAATGCTATCGGGGCTAAGTATCAAAATGAGC [A2(35)]	58.1
CGTCGTCGTCGTCGTCGTTTTCGCGAATGCTATCGGGGCTAAGTATCAAAATGAGC / ACGACGACGACGACGACGTTTCGCGAATGCTATCGGGGCTAAGTATCAAAATGAGC [BAD (bivalent aptamer-DNA carrier)]	7.7
